Here are results for one molecule from patent US20250171533A1 (NEXTPOINT THERAPEUTICS, published 2025).

Experiment [1] deals with T1, KIR3DL3 expressed on cells (human, UniProt Q8N743 26-410). Kind of experiment: cell-based or functional assay.
Experiment [2] deals with T1, KIR3DL3 expressed on cells. Kind of experiment: blocking assay by flow cytometry on 300.19-KIR3DL3 cells; blocked ligand: recombinant biotinylated HHLA2, detected by streptavidin-APC. The method, then: Recombinant biotinylated HHLA2 at 5 mg/mL was added to the cells and incubated for 30 minutes. The cells were treated with 1:250 of APC-streptavidin for 30 minutes to detect recombinant biotinylated HHLA2 bound to cells. […] NPX267 blocked recombinant HHLA2-Fc from binding to its inhibitory receptor KIR3DL3 in a dose dependent manner.
(Flow cytometry measures light scatter and fluorescence of single cells or particles in a stream.)

Experiment [3] concerns the target T1, KIR3DL3 expressed on cells. Kind of experiment: flow cytometry on 300.19-KIR3DL3 cells, anti-human PE secondary, gMFI. The procedure:
(§1) Flow cytometric analysis of primary antibody binding was detected using an anti-human PE secondary antibody. The mean and standard deviation of duplicate data points are shown. Data performed in duplicate was entered into GraphPad Prism software and the EC₅₀ was determined using a 4-parameter nonlinear regression equation.

Experiment [4] addresses T2, recombinant KIR3DL3 protein (human) (human, UniProt Q8N743 26-322, limits assumed).
T2 construct: also called human KIR3DL3; killer cell immunoglobulin like receptor, three Ig domains and long cytoplasmic tail 3
Kind of experiment: SPR (Biacore); column ka1 (1/Ms); the drawn table names KIR3DL3 as analyte and NPX267 as ligand, paragraph 256 says the reverse. The method, then: (§2) The monovalent binding affinity of NPX267 to recombinant KIR3DL3 protein was determined by SPR using a Biacore instrument; KIR3DL3 protein was immobilized on a CM5 chip and NPX267 was run as the analyte. […] No off-target binding was found in a screen of greater than 5800 plasma membrane proteins.
(Surface plasmon resonance follows binding to a sensor surface in real time, without labels.)

Experiment [5] deals with T2, recombinant KIR3DL3 protein (human). Kind of experiment: SPR (Biacore), KIR3DL3 protein immobilized on a CM5 chip, NPX267 as analyte; KIR3DL3 immobilized on CM5 chip; NPX267 IgG4 as analyte. The method, then:
as §2

Experiment [6] shares this target. Kind of experiment: SPR (Biacore); column kd1 (1/s); the drawn table names KIR3DL3 as analyte and NPX267 as ligand, paragraph 256 says the reverse. The procedure: as §2
The target of experiment [7] is T1, KIR3DL3 expressed on cells. Kind of experiment: flow cytometry on primary human NK cells in whole blood, Donor KP63935, GeoMean of anti-human PE secondary; no unit in the table, unit taken from the axis Log [ug/ml]. The method, then:
(§3) For primary human NK cells, human whole blood cells were treated with NPX267 at concentrations ranging from […] to […] for 30 minutes (FIG. 3C). Red blood cells were lysed and cells were stained with a cocktail of anti-human CD3, Anti-human CD56 and anti-human IgG4 PE. Flow cytometric analysis of primary antibody binding was detected using an anti-human PE secondary antibody.

The target in experiment [8] is T1, KIR3DL3 expressed on cells. Kind of experiment: flow cytometry on NK92MI cells, anti-human PE secondary, gMFI; no unit beside the number, unit taken from the axis log [ug/mL]. The procedure: as §1
NK92 MI cells were treated with NPX267 at concentrations ranging from […] to 0.0005 mg/mL for 30 minutes (FIG. 3B). Flow cytometric analysis of primary antibody binding was detected using an anti-human PE secondary antibody. The mean and standard deviation of triplicate data points are shown.

For experiment [9], the target named is T1, KIR3DL3 expressed on cells. Kind of experiment: flow cytometry on primary human NK cells in whole blood, Donor KP63936, GeoMean of anti-human PE secondary; no unit in the table, unit taken from the axis Log [ug/ml]. The procedure: as §3
The target in experiment [10] is T1, KIR3DL3 expressed on cells. Kind of experiment: flow cytometry on primary human NK cells in whole blood, Donor KP63901, GeoMean of anti-human PE secondary; no unit in the table, unit taken from the axis Log [ug/ml]. The procedure: as §3

T1 sequence (Q8N743 26-410): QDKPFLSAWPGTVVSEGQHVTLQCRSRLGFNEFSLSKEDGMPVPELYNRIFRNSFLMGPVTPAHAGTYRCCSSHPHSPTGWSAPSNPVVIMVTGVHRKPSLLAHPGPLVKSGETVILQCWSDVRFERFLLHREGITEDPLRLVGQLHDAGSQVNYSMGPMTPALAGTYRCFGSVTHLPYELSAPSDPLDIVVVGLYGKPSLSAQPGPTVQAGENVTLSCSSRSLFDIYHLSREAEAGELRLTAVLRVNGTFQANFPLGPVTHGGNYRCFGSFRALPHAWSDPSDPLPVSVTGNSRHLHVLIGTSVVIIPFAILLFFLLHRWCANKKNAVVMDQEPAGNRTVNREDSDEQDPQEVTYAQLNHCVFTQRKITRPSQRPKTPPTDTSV
T2 sequence (Q8N743 26-322 limits assumed): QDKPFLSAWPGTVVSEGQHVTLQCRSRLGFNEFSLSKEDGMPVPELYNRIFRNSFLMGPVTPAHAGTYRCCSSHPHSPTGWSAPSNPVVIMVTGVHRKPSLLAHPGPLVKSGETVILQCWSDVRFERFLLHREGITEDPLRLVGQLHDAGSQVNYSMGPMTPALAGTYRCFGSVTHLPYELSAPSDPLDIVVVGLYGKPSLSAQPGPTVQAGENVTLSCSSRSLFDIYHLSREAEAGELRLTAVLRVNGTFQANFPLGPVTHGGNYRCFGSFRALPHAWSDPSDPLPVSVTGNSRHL

B1: NPX267 (Hu26E10z7p7) (antibody, human IgG4 S228P, kappa, V domains shown)
VH: QAQLVQSGAEVKKPGASVKVSCKASGYTFTSYNIHWVRQAPGQGLEWMGYIYPGDAVTNYNQKFKGRVTMTADTSTSTVYMELSSLRSEDTAVYYCARSGNYGNYEGFAYWGQGTLVTVSS
VL: DIQMTQSPSSLSASVGDRVTITCKASQDTQSYLSWFQQKPGKAPKTLIYRANRLVDGVPSRFSGSGSGTDFTLTISSLQPEDFATYYCLQYDEFPYTFGGGTKVEIKR
notes: For staining of tumor infiltrating NK cells an APC conjugate (NPX267-APC) was used; also called humanized version of 26E10
For the molecule B1, the “target cell death (Annexin V), NK92MI effector cells against K562 cells engineered to express HHLA2” value in experiment [1] stood at 2 fold. Also, in experiment [2], the “IC50 (read off the curve)” value is roughly 0.05 µg/mL. The EC50 in experiment [3] amounted to 0.0684 µg/mL; in [7], 0.0294 µg/mL; in experiment [8], 0.131 µg/mL; in experiment [9], 0.098 µg/mL; in experiment [10] it was 0.0298 µg/mL. Moreover, the association rate constant (kon) in experiment [4] is 587000 M⁻¹ s⁻¹. Moreover, the Kd in [5] worked out at 0.679 nM. The koff in experiment [6] is 0.000398 s⁻¹.

The EC50 is the concentration needed to bring the measured effect to its halfway point. As a reminder, the kon is a measure of how fast the partners come together. The term Kd denotes a measure of binding affinity in units of concentration. The term koff denotes a measure of how fast the partners let go of each other.
